Measurements from patent US20200123252A1 (LAMKAP BIO BETA, published 2020).
Numbering of substitutions follows the chain as printed.

Tests used:
[1] = molecular target: T1, human CEACAM5 on MKN-45 cells (human, UniProt P06731 35-685); assay: flow cytometry on MKN45 CEA+ cells (carry CEACAM5 and CD47)
T1 construct: Endogenous CEACAM5 on MKN-45 gastric adenocarcinoma cells, which also carry CD47 (and CEACAM6); also called CD66e; MKN45 CEA+ cancer cells
T1 sequence: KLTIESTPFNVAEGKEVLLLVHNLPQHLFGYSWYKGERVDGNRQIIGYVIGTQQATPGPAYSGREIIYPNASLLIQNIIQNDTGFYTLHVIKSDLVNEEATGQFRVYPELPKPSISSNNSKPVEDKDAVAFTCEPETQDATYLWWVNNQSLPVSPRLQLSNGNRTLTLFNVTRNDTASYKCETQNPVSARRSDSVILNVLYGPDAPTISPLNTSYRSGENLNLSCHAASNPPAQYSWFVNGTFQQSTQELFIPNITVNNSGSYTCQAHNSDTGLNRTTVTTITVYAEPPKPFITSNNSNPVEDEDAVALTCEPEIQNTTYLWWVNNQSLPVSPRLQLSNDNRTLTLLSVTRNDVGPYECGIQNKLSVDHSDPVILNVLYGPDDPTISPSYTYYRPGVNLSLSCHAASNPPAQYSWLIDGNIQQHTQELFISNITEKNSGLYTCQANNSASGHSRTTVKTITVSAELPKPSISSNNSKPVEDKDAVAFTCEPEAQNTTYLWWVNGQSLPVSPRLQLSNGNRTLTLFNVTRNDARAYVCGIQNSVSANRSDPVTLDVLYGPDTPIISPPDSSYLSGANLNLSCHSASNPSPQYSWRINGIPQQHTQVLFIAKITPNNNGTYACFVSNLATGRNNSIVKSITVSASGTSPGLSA

[2] = molecular target: T2, human CD47 on MKN45 cells (human, UniProt Q08722 19-323); assay: inhibition of SIRPα-mouseFc binding to CD47 on MKN45 cells, imaging (CX5)
T2 construct: whole, on cells; also called IAP
Excerpt: The detection of bound SIRPα cell-based assay monitoring the interaction of soluble SIRPα with human CD47 expressed at the surface of MKN45 is used for the detection of the blocking activity. Dose-response experiments with bispecific antibodies according to the invention allow determination of an IC50 value.
MKN45 cancer cells, expressing both CD47 and CEACAM5, are stained with CFSE violet to allow the imaging system (CX5) to detect the cells. Briefly, 3,000 stained MKN45 cells per well are seeded in a 384 optical well plate (Costar) and incubated for 50 minutes with increased concentrations of bispecific antibodies of the invention (1.9 pM to 333 nM, in quadruplicates). Then, a fixe concentration of SIRPα-mouseFc premixed with anti-mouse IgG-Fc AF647 coupled antibody (Jackson Immunoresearch diluted 1:2000) is added at 50 ng/mL final. After an incubation of 3H30 plates are acquired with the imaging system (CX5, Thermofisher) and fluorescence signals emitted by the detected bound SIRPα is recorded by the software dedicated to the imaging system. Fluorescence signals are plotted according to the dose range tested and IC50 are calculated by the software (Prism, Graphpad).

shed CEA (soluble CEA) = molecular target: T3, shed CEA (soluble CEA) (human, UniProt P06731 35-685, limits assumed); assay: cell-based or functional assay
T3 sequence (looked up): T1 sequence with K364E

[3] = molecular target: T1, human CEACAM5 on MKN-45 cells; assay: binding to MKN-45 cells (MFI), in the presence of 200 ng/mL shed CEA
[4] = molecular target: T1, human CEACAM5 on MKN-45 cells; assay: binding to MKN-45 cells (MFI), without shed CEA
human CEACAM6 = molecular target: T4, human CEACAM6 (human, UniProt P40199 35-320); assay: statement in the legend of FIG. 21A (FACS on MKN-45 cells)
T4 construct: also called CD66c; biotinylated recombinant human CEACAM6
T4 sequence (looked up): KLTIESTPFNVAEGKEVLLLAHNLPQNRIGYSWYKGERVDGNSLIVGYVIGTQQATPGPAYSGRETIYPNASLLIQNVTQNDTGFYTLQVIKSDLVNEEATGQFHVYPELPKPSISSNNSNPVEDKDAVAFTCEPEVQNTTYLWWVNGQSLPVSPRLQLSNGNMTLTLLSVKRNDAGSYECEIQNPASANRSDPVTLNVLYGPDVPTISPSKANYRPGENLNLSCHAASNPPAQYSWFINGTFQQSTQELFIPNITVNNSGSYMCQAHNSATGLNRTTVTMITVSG

[5] = molecular target: T1, human CEACAM5 on MKN-45 cells; assay: FACS binding to MKN-45 cells, which express CD47, CEACAM5 and CEACAM6

B1: K2AC22 CEA×CD47 bispecific antibody (bispecific antibody, human IgG1, kappa, lambda)
heavy: not shown
light 1: QSVLTQPPSVSAAPGQKVTISCSGSSSNIANGIVSWYQQLPGTAPKLLIYFDNLRPSGIPDRFSGSKSGTSATLGITGLQTGDEADYYCGTWDFSYGIVFGGGTKLTVLGQPKAAPSVTLFPPSSEELQANKATLVCLISDFYPGAVTVAWKADSSPVKAGVETTTPSKQSNNKYAASSYLSLTPEQWKSHRSYSCQVTHEGSTVEKTVAPTECS
light 2: not shown
notes: κλ body, human IgG1, common heavy chain; CEACAM5 arm light chain 1G6 (AC22)
EC50 [1]: 16.5 nM
IC50 [2]: 0.37 nM
shift of EC50 of the phagocytosis index curve of MKN-45 cells by 200 ng/mL shed CEA (shed CEA (soluble CEA)): < 4 fold
EC50 (read off the curve) [3]: ~0.5 µg/mL
EC50 (read off the curve) [4]: ~0.5 µg/mL
binding result (human CEACAM6): no binding
EC50 (read off the curve) [5]: ~1 µg/mL
